From patent US20130236458A1 (AbbVie / Abbott, published 2013) come the findings set out here.

Assay [1] has as its target T1, Recombinant Human IL-13 (human, UniProt P35225 35-146, limits assumed).
T1 construct: bought reagent
The assay is described as follows: SPR (Biacore). The method, boiled down: (§1)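 Antibodies or DVD-Ig captured on anti-mouse IgG (Fcγ) CM5 surface; antigen injected at 10–200 nM in HBS-EP, pH 7.4, 25 °C, 25 µL/min. kon and koff from global 1:1 Langmuir fit; KD = koff/kon.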

Assay [2] concerns the target T2, Recombinant Human IL-17 (human, UniProt Q16552 20-155, limits assumed).
T2 construct: bought reagent; also called IL-17A
T2 sequence (looked up): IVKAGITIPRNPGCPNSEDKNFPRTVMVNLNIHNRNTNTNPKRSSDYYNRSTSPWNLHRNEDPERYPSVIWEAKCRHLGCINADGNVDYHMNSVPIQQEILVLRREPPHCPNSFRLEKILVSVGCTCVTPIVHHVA
Nature of the assay: SPR (Biacore). The method, boiled down: as §1

In assay [3] the target is T1, Recombinant Human IL-13. The assay is described as follows: cell-based or functional assay.
Assay [4] concerns the target T2, Recombinant Human IL-17. The assay is described as follows: cell-based or functional assay.

T1 sequence (P35225 35-146 limits assumed): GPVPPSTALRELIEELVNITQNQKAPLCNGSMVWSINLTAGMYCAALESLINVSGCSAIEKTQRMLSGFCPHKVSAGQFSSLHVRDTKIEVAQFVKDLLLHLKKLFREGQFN

B1: DVD2187 (bispecific antibody)
VH: EVQLVQSGAEVKKPGSSVKVSCKASGYTFTDYEIHWVRQAPGQGLEWMGVNDPESGGTFYNQKFDGRVTLTADESTSTAYMELSSLRSEDTAVYYCTRYSKWDSFDGMDYWGQGTTVTVSSASTKGPEVQLVQSGAEVKKPGASVKVSCKASGYTFTSYWMHWVRQAPGQGLEWIGNINPKGGSNIYNEKFQGRVTMTRDTSISTAYMELSRLRSDDTAVYYCARLDYFGDSFDLWGQGTTVTVSS
VL: DIQMTQSPSSLSASVGDRVTITCRASSGIISYIDWFQQKPGKAPKRLIYATFDLASGVPSRFSGSGSGTDYTLTISSLQPEDFATYYCRQVGSYPETFGQGTKLEIKRTVAAPSVFIFPPDIQMTQSPSSLSASVGDRVTITCRASQGIRNYLNWYQQKPGKAPKLLIYYASNLEVGVPSRFSGSGSGTDYTLTISSLQPEDFATYYCQQDNRFPYTFGGGTKVEIKR
notes: DVD-Ig; also called DVD2187H; DVD2187L
Turning to B1, in assay [1], the Kd is 0.072 nM, the off-rate constant (koff) is 2.1e-05 s⁻¹ and the kon was 290000 M⁻¹ s⁻¹. In assay [2], the Kd was below 0.00038 nM, the koff was below 1e-06 s⁻¹ and the kon was determined as 2.6e+06 M⁻¹ s⁻¹. The “C-Terminal VD IL13 Neutralization Assay IC50” value in assay [3] came out at 0.811 nM. Also, the “N-Terminal VD IL17 Neutralization Assay IC50” value in assay [4] turned out to be 0.0016 nM.

B2: DVD2175 (bispecific antibody)
VH: EVQLVQSGAEVKKPGSSVKVSCKASGGSFGGYGIGWVRQAPGQGLEWMGGITPFFGFADYAQKFQGRVTITADESTTTAYMELSGLTSDDTAVYYCARDPNEFWNGYYSTHDFDSWGQGTTVTVSSASTKGPEVQLVQSGAEVKKPGASVKVSCKASGYTFTTYGVSWVRQAPGQGLEWMGEIYPGNYNTYYNEKFRGRVTMTTDTSTSTAYMELRSLRSDDTAVYYCARWRTSYFSDYGYFDYWGQGTTVTVSS
VL: EIVLTQSPDFQSVTPKEKVTITCRASQDIGSELHWYQQKPDQPPKLLIKYASHSTSGVPSRFSGSGSGTDFTLTINGLEAEDAGTYYCHQTDSLPYTFGPGTKVDIKRTVAAPSVFIFPPDVVMTQSPLSLPVTLGQPASISCRSSQSLVHSHGNTYLHWYQQRPGQSPRLLIYTVSNRFSGVPDRFSGSGSGTDFTLKISRVEAEDVGVYYCSQSTHVPYTFGGGTKVEIKR
notes: DVD-Ig; also called DVD2175H; DVD2175L
As to B2, in assay [1], the dissociation constant Kd was below 0.019 nM, the off-rate constant (koff) was below 1e-06 s⁻¹ and the on-rate (kon) was found to be 52000 M⁻¹ s⁻¹. Also, in assay [2], the dissociation constant Kd stood at 0.0021 nM, the dissociation rate constant (koff) worked out at 5.4e-06 s⁻¹ and the on-rate (kon) stood at 2.7e+06 M⁻¹ s⁻¹. The “C-Terminal VD IL13 Neutralization Assay IC50” value in assay [3] was 0.115 nM. Moreover, the “N-Terminal VD IL17 Neutralization Assay IC50” value in assay [4] amounted to 0.0089 nM.

B3: DVD2181 (bispecific antibody)
VH: EVQLVQSGAEVKKPGESVKISCKASGGSFRSYGISWVRQAPGQGLEWMGGITHFFGITDYAQKFQGRVTITADESTTTAYMELSGLTSDDTAVYYCAREPNDFWNGYYDTHDFDSWGQGTTVTVSSASTKGPEVQLVQSGAEVKKPGASVKVSCKASGYTFTTYGVSWVRQAPGQGLEWMGEIYPGNYNTYYNEKFRGRVTMTTDTSTSTAYMELRSLRSDDTAVYYCARWRTSYFSDYGYFDYWGQGTTVTVSS
VL: EIVLTQSPDFQSVTPKEKVTITCRASQNIGSELHWYQQKPDQSPKLLIKYASHSISGVPSRFSGSGSGTDFTLTINGLEAEDAATYYCHQSDTLPHTFGQGTKVDIKRTVAAPSVFIFPPDVVMTQSPLSLPVTLGQPASISCRSSQSLVHSHGNTYLHWYQQRPGQSPRLLIYTVSNRFSGVPDRFSGSGSGTDFTLKISRVEAEDVGVYYCSQSTHVPYTFGGGTKVEIKR
notes: DVD-Ig; also called DVD2181H; DVD2181L
Take B3: in assay [1], the Kd was below 0.012 nM, the off-rate constant (koff) was below 1e-06 s⁻¹ and the kon amounted to 82000 M⁻¹ s⁻¹. In addition, in assay [2], the Kd was determined as 0.016 nM, the off-rate (koff) is 4.2e-05 s⁻¹ and the kon stood at 2.6e+06 M⁻¹ s⁻¹. Also, the “C-Terminal VD IL13 Neutralization Assay IC50” value in assay [3] was 0.04 nM. Also, the “N-Terminal VD IL17 Neutralization Assay IC50” value in assay [4] is 0.0097 nM.

B4: DVD2174 (bispecific antibody)
VH: EVQLVQSGAEVKKPGASVKVSCKASGYTFTTYGVSWVRQAPGQGLEWMGEIYPGNYNTYYNEKFRGRVTMTTDTSTSTAYMELRSLRSDDTAVYYCARWRTSYFSDYGYFDYWGQGTTVTVSSASTKGPEVQLVQSGAEVKKPGSSVKVSCKASGGSFGGYGIGWVRQAPGQGLEWMGGITPFFGFADYAQKFQGRVTITADESTTTAYMELSGLTSDDTAVYYCARDPNEFWNGYYSTHDFDSWGQGTTVTVSS
VL: DVVMTQSPLSLPVTLGQPASISCRSSQSLVHSHGNTYLHWYQQRPGQSPRLLIYTVSNRFSGVPDRFSGSGSGTDFTLKISRVEAEDVGVYYCSQSTHVPYTFGGGTKVEIKRTVAAPSVFIFPPEIVLTQSPDFQSVTPKEKVTITCRASQDIGSELHWYQQKPDQPPKLLIKYASHSTSGVPSRFSGSGSGTDFTLTINGLEAEDAGTYYCHQTDSLPYTFGPGTKVDIKR
notes: DVD-Ig; also called DVD2174H; DVD2174L
In the case of B4, in assay [1], the equilibrium dissociation constant (Kd) was 0.036 nM, the off-rate constant (koff) came to 2.8e-05 s⁻¹ and the association rate constant (kon) was 790000 M⁻¹ s⁻¹. Also, in assay [2], the Kd was 0.098 nM, the koff stood at 1.8e-05 s⁻¹ and the kon worked out at 180000 M⁻¹ s⁻¹. In addition, the “N-Terminal VD IL13 Neutralization Assay IC50” value in assay [3] is 0.085 nM. Besides, the “C-Terminal VD IL17 Neutralization Assay IC50” value in assay [4] amounted to 0.0126 nM.
